# Experimental data taken from the RNAGym collection of RNA variant scans (doi:10.7554/elife.80360).
# B1: HDV Ribozyme (parent)
# chain: GGCCGGCAUGGUCCCAGCCUCCUCGCUGGCGCCGGCUGGGCAACAUUCCGAGGGGACCGUCCCCUCGGUAAUGGCGAAUGGGACCCA
# Variants of: B1
# Experiment: self-cleavage, relative activity (ratio to wild type); higher = more cleavage; co-transcriptional
row,Variant,self-cleavage
1,GGGCGGCAUCGUCCCAGCCUCCUCGCUGGCGCCGGCUGGGCAACAUUCCGAGGGGACCGUCCCCUCGGUAAUGGCGAAUGGGACCCA,0.151
2,GGGCGGCAUGGUCCCAGCCUCCUCGCUGGCGCCGGCUGGGCAACAUUCCGAGGGGACCGUCCCCUCGGUAAUGGCGAAUGGAACCCA,0.19
3,GGGCGGCAUGGUCCCAGCCUCCUCGCUGGCGCCGGCUGGGCAACAUUCCGAGGGGACCGUCCCCUCGGUAAUGGCGAAUGGUACCCA,0.166
4,GGGCGGCAUGGUCCCAGCCUCCUCUCUGGCGCCGGCUGGGCAACAUUCCGAGGGGACCGUCCCCUCGGUAAUGGCGAAUGGGACCCA,0.0277
5,GGGCGGCAUGGUCCCAGCCUCCUCGCUGGCGCCGGCUAGGCAACAUUCCGAGGGGACCGUCCCCUCGGUAAUGGCGAAUGGGACCCA,0.0386
6,GGGCGGCAUGGUCCCAGCCUCCUCGCUGGCGCCGGCUCGGCAACAUUCCGAGGGGACCGUCCCCUCGGUAAUGGCGAAUGGGACCCA,0.192
7,GGGCGCCAUGGUCCCAGCCUCCUCGCUGGCGCCGGCUGGGCAACAUUCCGAGGGGACCGUCCCCUCGGUAAUGGCGAAUGGGACCCA,0.0475
8,GGGCGGCAUGGUCCCAGCCUCCUCGCUGGCGCCGGCUGGGCAACAUUCCGAGGGGACCGUCCCCUUGGUAAUGGCGAAUGGGACCCA,0.715
9,GGGCGGCAUGGUCCCAGCCUCCUCGCUGGCGCCGGCUGGGCAACAUUCCGAGGGGACCGUCCCCUGGGUAAUGGCGAAUGGGACCCA,0.761
10,GGGCGGCAUGGUCCCAGCCUCCUCGCUGGCGCCGGCUGGGCAACAUUCCGAGGGGACCGUCCCCUCGUUAAUGGCGAAUGGGACCCA,0.383
11,GGGCGGCAUGGUCCCAGCCUCCUCGCUGGCGCCGGCUGGGCAACAUUCCGAGGGGACCGUCCCCUCGCUAAUGGCGAAUGGGACCCA,0.531
12,GGUCGGCAUGGUCCCAGCCUCCUCGCUGGCGCCGGCUGGGCAACAUUCCGAGGGGACCGUCCCCUCGGUAAUGGCGAAUGGGUCCCA,0.17
13,GGGCGGCAUGGUCCCAGCCUCCUCGCUGGCGCCGGGUGGGCAACAUUCCGAGGGGACCGUCCCCUCGGUAAUGGCGAAUGGGACCCA,0.0343
14,GGUCGGCAUGGUCCCGGCCUCCUCGCUGGCGCCGGCUGGGCAACAUUCCGAGGGGACCGUCCCCUCGGUAAUGGCGAAUGGGACCCA,0.675
15,GGGCGGCAUGGUCCCAGCCCCCUCGCUGGCGCCGGCUGGGCAACAUUCCGAGGGGACCGUCCCCUCGGUAAUGGCGAAUGGGACCCA,0.0489
16,GGGCGGCAUGGUCCCAGCCUCCUCGCUGGCGCCGGCUGGGCAACAUUCCUAGGGGACCGUCCCCUCGGUAAUGGCGAAUGGGACCCA,0.665

row,Variant,self-cleavage
1,GGGCGGCAUGGUCCCAGCCUCCUCGCUGGCGCCGGCUGGGCAACAUUCCGAGGGAACCGUCCCCUCGGUAAUGGCGAAUGGGACCCA,0.76
2,GGGCGGCAUGGUCCCAGCCUCCUCGCUGGCGCCGGCUGGGCAACAUUCCGAGGGUACCGUCCCCUCGGUAAUGGCGAAUGGGACCCA,0.821
3,GGGCGGCAUGGUCCCAGCCUCCUCGCUGGCGCCGGCUGGGCAACAUUCCGAGGGGACCGUCCCCUCGGUAAUGGCGAAUGGGAACCA,0.564
4,GGUCGGCAUGGUCCCAGCCUCCUCGCUGGCGCCGGCUGGGCAACUUUCCGAGGGGACCGUCCCCUCGGUAAUGGCGAAUGGGACCCA,0.432
5,GGGCGGCAUGGUCCCAGCCUCCUCGCUGGCGCCGGCUGGGCAAAAUUCCGAGGGGACCGUCCCCUCGGUAAUGGCGAAUGGGACCCA,0.312
6,GGGCGGCAUGGUCCCAGCCUCCUCGCUGGCGCCGGCUGGGCAACAUUCCGAGGGGACCGCCCCCUCGGUAAUGGCGAAUGGGACCCA,0.748
7,GGGCGGCAUGGUCCCAGCCUCCUCGCUGGCGCCGGCUGGGCAACAUUCCGAGGGGACCGGCCCCUCGGUAAUGGCGAAUGGGACCCA,0.773
8,GGGCGGCAUGGUCCCAGCCUCCUCGCUGGCGCCGGCUGGGCAACAUUCCGAGGGGACCGACCCCUCGGUAAUGGCGAAUGGGACCCA,0.772
9,GGGCGGCAUGGUCCCAGCCUCCUCGCUGGCGCCGGCUGGGCAACAUUCCGAGGUGACCGUCCCCUCGGUAAUGGCGAAUGGGACCCA,0.702
10,GGGCGGCAUGGUCCCAGCCUCCUCGCUGGCGCCGGCUGGGCAACAUUCCGAGGGGACCGUCCCCUCGGUAAUCGCGAAUGGGACCCA,0.272
11,GGGCGGCAUGGUCCCAGCCUCCUCGCUGGCGCCGGCUGGGCAACAUUCCGAGGGGACCGUCCCCUCGGUAAUGGAGAAUGGGACCCA,0.119
12,GGGCGGCAUGGUCCCAGCCUCCUCGCUGGCGCCGGCUGUGCAACAUUCCGAGGGGACCGUCCCCUCGGUAAUGGCGAAUGGGACCCA,0.0989
13,GGGCGGCAUGGUCCCAGCCUCCUCGCUGGCGCCCGCUGGGCAACAUUCCGAGGGGACCGUCCCCUCGGUAAUGGCGAAUGGGACCCA,0.192
14,GGGCGGCAUGGUCCCAGCCUCCUCGCUGGCGCCAGCUGGGCAACAUUCCGAGGGGACCGUCCCCUCGGUAAUGGCGAAUGGGACCCA,0.229
15,GGUCGGCAUGGUCCCAGCCUCCUCGCUGGCGCCGGCUGGGCAACAUUCCGAGGGGACCGUCCCCUCGGUAAUGGCGAAUGGGACCCG,0.752
16,GGGCGGCAUGGUCCCAGCCUCCUCGCUGGCGCCGGCUGGGCAACAGUCCGAGGGGACCGUCCCCUCGGUAAUGGCGAAUGGGACCCA,0.248
